Laboratory results as given in patent publication US20250290037.

B1: secreted Neprilysin (lacks transmembrane and cytoplasmic domains; secretion signal at N-terminus) (protein)
chain: YDDGICKSSDCIKSAARLIQNMDATTEPCTDFFKYACGGWLKRNVIPETSSRYGNFDILRDELEVVLKDVLQEPKTEDIVAVQKAKALYRSCINESAIDSRGGEPLLKLLPDIYGWPVATENWEQKYGASWTAEKAIAQLNSKYGKKVLINLFVGTDDKNSVNHVIHIDQPRLGLPSRDYYECTGIYKEACTAYVDFMISVARLIRQEERLPIDENQLALEMNKVMELEKEIANATAKPEDRNDPMLLYNKMTLAQIQNNFSLEINGKPFSWLNFTNEIMSTVNISITNEEDVVVYAPEYLTKLKPILTKYSARDLQNLMSWRFIMDLVSSLSRTYKESRNAFRKALYGTTSETATWRRCANYVNGNMENAVGRLYVEAAFAGESKHVVEDLIAQIREVFIQTLDDLTWMDAETKKRAEEKALAIKERIGYPDDIVSNDNKLNNEYLELNYKEDEYFENIIQNLKFSQSKQLKKLREKVDKDEWISGAAVVNAFYSSGRNQIVFPAGILQPPFFSAQQSNSLNYGGIGMVIGHEITHGFDDNGRNFNKDGDLVDWWTQQSASNFKEQSQCMVYQYGNFSWDLAGGQHLNGINTLGENIADNGGLGQAYRAYQNYIKKNGEEKLLPGLDLNHKQLFFLNFAQVWCGTYRPEYAVNSIKTDVHSPGNFRIIGTLQNSAEFSEAFHCRKNSYMNPEKKCRVW
B2: membrane-bound Neprilysin (full-length Neprilysin; includes transmembrane and cytoplasmic domains) (protein)
chain: GKSESQMDITDINTPKPKKKQRWTPLEISLSVLVLLLTIIAVTMIALYATYDDGICKSSDCIKSAARLIQNMDATTEPCTDFFKYACGGWLKRNVIPETSSRYGNFDILRDELEVVLKDVLQEPKTEDIVAVQKAKALYRSCINESAIDSRGGEPLLKLLPDIYGWPVATENWEQKYGASWTAEKAIAQLNSKYGKKVLINLFVGTDDKNSVNHVIHIDQPRLGLPSRDYYECTGIYKEACTAYVDFMISVARLIRQEERLPIDENQLALEMNKVMELEKEIANATAKPEDRNDPMLLYNKMTLAQIQNNFSLEINGKPFSWLNFTNEIMSTVNISITNEEDVVVYAPEYLTKLKPILTKYSARDLQNLMSWRFIMDLVSSLSRTYKESRNAFRKALYGTTSETATWRRCANYVNGNMENAVGRLYVEAAFAGESKHVVEDLIAQIREVFIQTLDDLTWMDAETKKRAEEKALAIKERIGYPDDIVSNDNKLNNEYLELNYKEDEYFENIIQNLKFSQSKQLKKLREKVDKDEWISGAAVVNAFYSSGRNQIVFPAGILQPPFFSAQQSNSLNYGGIGMVIGHEITHGFDDNGRNFNKDGDLVDWWTQQSASNFKEQSQCMVYQYGNFSWDLAGGQHLNGINTLGENIADNGGLGQAYRAYQNYIKKNGEEKLLPGLDLNHKQLFFLNFAQVWCGTYRPEYAVNSIKTDVHSPGNFRIIGTLQNSAEFSEAFHCRKNSYMNPEKKCRVW

Target: 488-labeled fibrillized-Aβ (1-42) (Anaspec), P05067
Sequence (P05067 whole entry, looked up, tested part not stated): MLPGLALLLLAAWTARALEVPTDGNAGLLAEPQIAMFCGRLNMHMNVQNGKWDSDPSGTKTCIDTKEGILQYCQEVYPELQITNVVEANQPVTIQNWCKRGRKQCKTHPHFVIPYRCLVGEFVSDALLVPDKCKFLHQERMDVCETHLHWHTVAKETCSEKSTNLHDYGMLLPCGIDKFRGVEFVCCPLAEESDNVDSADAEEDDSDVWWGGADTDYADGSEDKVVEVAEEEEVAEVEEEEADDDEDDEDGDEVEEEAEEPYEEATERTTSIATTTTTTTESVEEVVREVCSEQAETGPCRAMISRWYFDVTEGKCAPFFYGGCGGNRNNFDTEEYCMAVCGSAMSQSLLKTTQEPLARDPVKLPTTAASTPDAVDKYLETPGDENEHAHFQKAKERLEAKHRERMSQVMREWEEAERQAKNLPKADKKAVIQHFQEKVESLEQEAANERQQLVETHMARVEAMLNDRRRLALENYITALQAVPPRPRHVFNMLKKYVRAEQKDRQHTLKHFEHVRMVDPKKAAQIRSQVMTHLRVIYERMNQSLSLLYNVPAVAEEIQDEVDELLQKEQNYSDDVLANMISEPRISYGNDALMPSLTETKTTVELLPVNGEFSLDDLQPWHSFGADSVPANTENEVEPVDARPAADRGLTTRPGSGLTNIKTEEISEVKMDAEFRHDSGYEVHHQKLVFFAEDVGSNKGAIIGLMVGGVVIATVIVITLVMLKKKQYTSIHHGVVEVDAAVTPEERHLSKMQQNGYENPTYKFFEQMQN

Protein	Aβ phagocytosis over time (slope of internalized fluorescent Aβ signal)
B1	Decreasing slope over time, as observed in sNEP and NEP data, indicates increasing degradation of Aβ following internalization
B2	Decreasing slope over time, as observed in sNEP and NEP data, indicates increasing degradation of Aβ following internalization
